Experiments:
Test in all cases: cell-based or functional assay
[1] = target: Env of HIV isolate P1981.C5.3 (clade G) (HIV)
[2] = target: HIV Env of isolate 3873.v1.c24 (HIV)
[3] = target: Env of HIV isolate MB201.A1 (clade A) (HIV)
[4] = target: HIV Env of isolate A03349M1.vrc4a (HIV)
[5] = target: HIV Env of isolate CNE58 (HIV)
[6] = target: Env of HIV isolate 3365.v2.c20 (clade A) (HIV)
[7] = target: Env of HIV isolate QH0515.01 (clade B) (HIV)
[8] = target: Env of HIV isolate C3347.c11 (clade AE) (HIV)
[9] = target: Env of HIV isolate MI369.A5 (clade A) (HIV)
[10] = target: HIV Env of isolate 426c (HIV)
[11] = target: HIV Env of isolate 25711-2.4 (HIV)
[12] = target: Env of HIV isolate CNE10 (clade B) (HIV)
[13] = target: Env of HIV isolate MS208.A1 (clade A) (HIV)
[14] = target: Env of HIV isolate 6471.v1.c16 (clade C) (HIV)
[15] = target: HIV Env of isolate TZA125.17 (HIV)
[16] = target: Env of HIV isolate 3988.25 (clade B) (HIV)
[17] = target: Env of HIV isolate CNE55 (clade AE) (HIV)
[18] = target: Env of HIV isolate BJOX010000.06.2 (clade AE) (HIV)
[19] = target: HIV Env of isolate CNE21 (HIV)
[20] = target: HIV Env of isolate P0402.c2.11 (HIV)
[21] = target: Env of HIV isolate 45_01dG5 (clade B) (HIV)
[22] = target: Env of HIV isolate 3016.v5.c45 (clade D) (HIV)
[23] = target: HIV Env of isolate DU156.12 (HIV)
[24] = target: Env of HIV isolate 6095.v1.c10 (clade ACD) (HIV)
[25] = target: HIV Env of isolate CE703010217.B6 (HIV)
[26] = target: Env of HIV isolate R1166.C1 (clade AE) (HIV)
[27] = target: Env of HIV isolate Q769.h5 (clade A) (HIV)
[28] = target: Env of HIV isolate QH0692.42 (clade B) (HIV)
[29] = target: Env of HIV isolate TH023.6 (clade AE) (HIV)
[30] = target: Env of HIV isolate CH181.12 (clade BC) (HIV)
[31] = target: HIV Env of isolate 6631.v3.c10 (HIV)
[32] = target: Env of HIV isolate 00836-2.5 (clade C) (HIV)
[33] = target: Env of HIV isolate 0013095-2.11 (clade C) (HIV)
[34] = target: Env of HIV isolate 25711-2.4 (clade C) (HIV)
[35] = target: HIV Env of isolate 0077.v1.c16 (HIV)
[36] = target: HIV Env of isolate X1254.c3 (HIV)
[37] = target: HIV Env of isolate 25925-2.22 (HIV)
[38] = target: HIV Env of isolate TV1.29 (HIV)
[39] = target: Env of HIV isolate 001428-2.42 (clade C) (HIV)
[40] = target: Env of HIV isolate 96ZM651.02 (clade C) (HIV)
[41] = target: Env of HIV isolate CNE7 (clade BC) (HIV)
[42] = target: Env of HIV isolate 6101.10 (clade B) (HIV)
[43] = target: Env of HIV isolate Q769.d22 (clade A) (HIV)
[44] = target: HIV Env of isolate CAP256.206.C9 (HIV)
[45] = target: Env of HIV isolate BG1168.01 (clade B) (HIV)
[46] = target: HIV Env of isolate ZA012.29 (HIV)
[47] = target: Env of HIV isolate 6545.v4.c1 (clade AC) (HIV)
[48] = target: Env of HIV isolate 3873.v1.c24 (clade C) (HIV)
[49] = target: Env of HIV isolate CNE20 (clade BC) (HIV)

B1: ePGT121.18 (ePGT121.18.H1 VH and ePGT121.17.L1 VL) (antibody, V domains shown)
VH: QMQLQESGPGLVKPGETLSLTCSVSGASISSSYWSWLRETPGKGLEWIGYTHHSGDTNYAPSLKSRVHLGLHPSKNQVSLSLTSVTAADTAVYYCARTLHGRRIYGVVAFNEYYTYFYWPTWGKGTQVTVSS
VL: SDISVAPGETVRITCGGESIGSRAVQWYQHRPGQAPRLIIYNNQDRPPGIPERFSGSPDIDFGTTATLTISNVEAGDEATYYCHIWDSRRPTNWELGPGTTLTVL
[1]
  IC50, pseudovirus neutralization: 1 ng/mL
[2]
  IC80, pseudovirus neutralization (M1): 6 ng/mL
  IC80, pseudovirus neutralization (M2): 0.011 µg/mL
[3]
  IC50, pseudovirus neutralization: 1 ng/mL
[4]
  IC80, pseudovirus neutralization (M1): 7 ng/mL
  IC80, pseudovirus neutralization (M2): 0.011 µg/mL
[5]
  IC80, pseudovirus neutralization (M1): 0.039 µg/mL
  IC80, pseudovirus neutralization (M2): 0.033 µg/mL
[6]
  IC50, pseudovirus neutralization: 4 ng/mL
[7]
  IC50, pseudovirus neutralization: 7 ng/mL
[8]
  IC50, pseudovirus neutralization: > 50 µg/mL
[9]
  IC50, pseudovirus neutralization: 2 ng/mL
[10]
  IC80, pseudovirus neutralization (M1): 0.302 µg/mL
  IC80, pseudovirus neutralization (M2): 0.337 µg/mL
[11]
  IC80, pseudovirus neutralization (M1): 5 ng/mL
  IC80, pseudovirus neutralization (M2): 6 ng/mL
[12]
  IC50, pseudovirus neutralization: 2 ng/mL
[13]
  IC50, pseudovirus neutralization: > 50 µg/mL
[14]
  IC50, pseudovirus neutralization: 0.378 µg/mL
[15]
  IC80, pseudovirus neutralization (M1): 0.137 µg/mL
  IC80, pseudovirus neutralization (M2): 0.186 µg/mL
[16]
  IC50, pseudovirus neutralization: 3 ng/mL
[17]
  IC50, pseudovirus neutralization: > 50 µg/mL
[18]
  IC50, pseudovirus neutralization: > 50 µg/mL
[19]
  IC80, pseudovirus neutralization (M1): 2 ng/mL
  IC80, pseudovirus neutralization (M2): 2 ng/mL
[20]
  IC80, pseudovirus neutralization (M1): 4 ng/mL
  IC80, pseudovirus neutralization (M2): 5 ng/mL
[21]
  IC50, pseudovirus neutralization: 1 ng/mL
[22]
  IC50, pseudovirus neutralization: > 50 µg/mL
[23]
  IC80, pseudovirus neutralization (M1): 3 ng/mL
  IC80, pseudovirus neutralization (M2): 3 ng/mL
[24]
  IC50, pseudovirus neutralization: 6 ng/mL
[25]
  IC80, pseudovirus neutralization (M1): 8 ng/mL
  IC80, pseudovirus neutralization (M2): 8 ng/mL
[26]
  IC50, pseudovirus neutralization: > 50 µg/mL
[27]
  IC50, pseudovirus neutralization: > 50 µg/mL
[28]
  IC50, pseudovirus neutralization: 6 ng/mL
[29]
  IC50, pseudovirus neutralization: > 50 µg/mL
[30]
  IC50, pseudovirus neutralization: 1 ng/mL
[31]
  IC80, pseudovirus neutralization (M1): 0.04 µg/mL
  IC80, pseudovirus neutralization (M2): 0.044 µg/mL
[32]
  IC50, pseudovirus neutralization: 14.4 µg/mL
[33]
  IC50, pseudovirus neutralization: 0.537 µg/mL
[34]
  IC50, pseudovirus neutralization: 2 ng/mL
[35]
  IC80, pseudovirus neutralization (M1): > 50 µg/mL
  IC80, pseudovirus neutralization (M2): > 50 µg/mL
[36]
  IC80, pseudovirus neutralization (M1): 5 ng/mL
  IC80, pseudovirus neutralization (M2): 6 ng/mL
[37]
  IC80, pseudovirus neutralization (M1): 8 ng/mL
  IC80, pseudovirus neutralization (M2): 0.01 µg/mL
[38]
  IC80, pseudovirus neutralization (M1): 5 ng/mL
  IC80, pseudovirus neutralization (M2): 8 ng/mL
[39]
  IC50, pseudovirus neutralization: 1 ng/mL
[40]
  IC50, pseudovirus neutralization: 0.7 ng/mL
[41]
  IC50, pseudovirus neutralization: 3 ng/mL
[42]
  IC50, pseudovirus neutralization: 1 ng/mL
[43]
  IC50, pseudovirus neutralization: > 50 µg/mL
[44]
  IC80, pseudovirus neutralization (M1): 3 ng/mL
  IC80, pseudovirus neutralization (M2): 4 ng/mL
[45]
  IC50, pseudovirus neutralization: > 50 µg/mL
[46]
  IC80, pseudovirus neutralization (M1): 6 ng/mL
  IC80, pseudovirus neutralization (M2): 7 ng/mL
[47]
  IC50, pseudovirus neutralization: > 50 µg/mL
[48]
  IC50, pseudovirus neutralization: 3 ng/mL
[49]
  IC50, pseudovirus neutralization: 1 ng/mL

B2: ePGT121.15.H2.L1 (antibody, V domains shown)
VH: QMQLQESGPGLVKPGETLSLTCSVSGASISSSYWSWLRETPGKGLEWIGYTHHSGDTNYAPSLKSRVHLGLHPSKNQVSLSLTSVTAADTAVYYCARTLHGRRIYGVVAFNEWFTYFYWEVWGKGTQVTVSS
VL: SDISVAPGETVRISCGGESIGSRAVQWYQHRAGQAPKLIIYNNQDRPPGIPERFSGSPDIDFGTTATLTITNVEAGDEATYYCHIWDSRRPTNWVFGGGTTLTVL
[5]
  neutralization (Table 6 value): 0.00464
[19]
  neutralization (Table 6 value): 0.000874

— US20210292396A1
